Results from publication PMC7340262, “Structural insights into the regulation of SigB activity by RsbV and RsbW” (IUCrJ, 2020).

T1: SigB (residues 1–262) (Bacillus subtilis strain 168, UniProt P06574 1-262)
T1 construct: RNA polymerase sigma-B factor SigB, Bacillus subtilis strain 168, residues 1-262; also called alternative sigma factor SigB; source: E. coli BL21 Star (DE3), co-expressed with RsbW (modified pETDuet-1), co-purified as RsbW–SigB complex
T1 sequence (looked up): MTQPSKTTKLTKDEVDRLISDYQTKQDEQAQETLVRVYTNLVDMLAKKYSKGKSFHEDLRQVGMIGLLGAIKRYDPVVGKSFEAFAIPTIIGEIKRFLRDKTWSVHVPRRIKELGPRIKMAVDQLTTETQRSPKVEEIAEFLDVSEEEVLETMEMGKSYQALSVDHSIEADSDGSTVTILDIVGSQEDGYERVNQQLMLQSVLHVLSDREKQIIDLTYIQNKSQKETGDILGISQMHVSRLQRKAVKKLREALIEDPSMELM

B1: RsbV (residues 1–109) (natural protein, Bacillus subtilis strain 168, UniProt P17903 1-109, looked up)
chain: MNINVDVKQNENDIQVNIAGEIDVYSAPVLREKLVPLAEQGADLRICLKDVSYMDSTGLGVFVGTFKMVKKQGGSLKLENLSERLIRLFDITGLKDIIDISAKSEGGVQ
notes: Anti-anti-sigma-B factor RsbV, Bacillus subtilis strain 168, residues 1-109 (called full-length); Tag removed with TEV protease; also called full-length RsbV; anti-anti-sigma factor RsbV; source: E. coli BL21 Star (DE3); co-expressed with RsbW (modified pETDuet-1) or expressed alone (modified pET-28b); purified (HisTrap, TEV cleavage, SEC); not shown: His6, N-terminal, cleaved; thioredoxin, …
B2: RsbW (residues 1–160), expressed alone (natural protein, Bacillus subtilis strain 168, UniProt P17904 1-160, looked up)
chain: MKNNADYIEMKVPAQPEYVGIIRLTLSGVASRMGYTYDEIEDLKIAVSEACTNAVQHAYKEDKNGEVSIRFGVFEDRLEVIVADEGDSFDFDQKQQDLGPYTPSHTVDQLSEGGLGLYLMETLMDEVRVQNHSGVTVAMTKYLNGERVDHDTTIKNYETN
notes: Anti-sigma-B factor RsbW, Bacillus subtilis strain 168, residues 1-160; 'RsbV and RsbW alone were similarly expressed and purified following the same procedures'; also called RsbW alone; source: E. coli BL21 Star (DE3), modified pET-28b, purified (HisTrap, TEV cleavage, Superdex 75 SEC); not shown: His6, N-terminal, cleaved; thioredoxin, N-terminal, cleaved
B3: RsbW (residues 1–160), co-expressed with RsbV (natural protein, Bacillus subtilis strain 168, UniProt P17904 1-160, looked up)
chain: B2 chain
notes: Serine-protein kinase / anti-sigma-B factor RsbW, Bacillus subtilis strain 168, residues 1-160 (called full-length); Four copies stand in the RsbV–RsbW octamer; also called full-length RsbW; anti-sigma factor RsbW
B4: RsbW (residues 1–160), co-expressed with SigB (natural protein, Bacillus subtilis strain 168, UniProt P17904 1-160, looked up)
chain: B2 chain
notes: Anti-sigma-B factor RsbW, Bacillus subtilis strain 168, residues 1-160; source: E. coli BL21 Star (DE3), co-expressed with SigB (modified pETDuet-1), co-purified as RsbW–SigB complex
B5: RsbW_(5–145) (residues 5–145) (domain or fragment, Bacillus subtilis strain 168, UniProt P17904 5-145, looked up)
chain: ADYIEMKVPAQPEYVGIIRLTLSGVASRMGYTYDEIEDLKIAVSEACTNAVQHAYKEDKNGEVSIRFGVFEDRLEVIVADEGDSFDFDQKQQDLGPYTPSHTVDQLSEGGLGLYLMETLMDEVRVQNHSGVTVAMTKYLNG
notes: Residues 59–64 and 85–113 (monoclinic) or 86–109 (hexagonal) are not visible in the crystal structures; also called truncated RsbW

Key:
[1] = biological target: B3; test: AF4-MALS; co-purified complexes or RsbW alone in phosphate-buffered saline pH 7.4; 50 µl injected; conditions: both partners purified
[2] = biological target: the molecule itself; test: as above
SigB (residues 1–262) = biological target: T1, SigB (residues 1–262); test: as above; conditions: both partners purified
[3] = biological target: the molecule itself; test: crystal structure; RsbV_(1–104)–RsbW_(5–145) complex; monoclinic crystals (25% PEG 1500, 100 mM SPG pH 8.5, 3.4 Å) and hexagonal crystals (20% PEG 3350, 200 mM potassium formate, excess ADP, 3.1 Å), 20°C

Binder | stoichiometry N [2] | also measured
B1 |  | stoichiometry N [1]: 1 RsbV per RsbW
B2 | 4 | 
B3 | 4 | 
B4 | 4 | stoichiometry N (SigB (residues 1–262)): 2 RsbW per SigB
B5 |  | stoichiometry N [3]: 4
